Experimental data from the supplement of paper PMC7877785.
± gives the uncertainty stated by the source.

Assay: self-splicing fitness, log relative to wild type (ln ratio); higher = more splicing; Tetrahymena group I intron in knt gene, E. coli kanamycin selection, DiMSum; sequences stand for … in CUCUCU…GGAGGGAAAAGUUAUCAGGCAUGCACCUGGUAGCUAGUCUUUAAACCAAUAGAUUGCAUCGGUUUAAAAGGCAAGACCGUCAAAUUGCGGGAAAGGGGUCAACAGCCGUUCAGUACCAAGUCUCAGGGGAAACUUUGAGAUGGCCUUGCAAAGGGUAUGGUAAUAAGCUGACGGACAUGGUCCUAACCACGCAGCCAAGUCCUAAGUCAACAGAUCUUCUGUUGAUAUGGAUGCAGUUCACAGACUAAAUGUCGGUCGGGGAAGAUGUAUUCUUCUCAUAAGAUAUAGUCGGACCUCUCCUUAAUGGGAGCUAGCGGAUGAAGUGAUGCAACACUGGAGCCGCUGGGAACUAAUUUGUAUGCGAAAGUAUAUUGAUUAGUUUUGGAGUACUCGUGGUCG
Procedure, shortened: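 Fitness was computed with DiMSum as the error-weighted combination of replicate fold changes, kanamycin versus none, each normalised to wild type. The library randomised all eight intron nucleotides of the P1ex region, with the intron placed in the knt kanamycin-resistance gene on pET-22b(+) in E. coli BL21(DE3). Six replicate transformations were grown overnight at 37°C or 30°C on LB agar with or without 25 μg/mL kanamycin, plus 100 μg/mL carbenicillin, 50 μM IPTG and 0.2% rhamnose. Pooled colonies were amplicon-sequenced on an Illumina HiSeq 2500.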

In the case of CUGAAGCAAUAUUACGUGAG, the “self-splicing fitness (ln)” value (30 °C) is reported as -0.269 ± 0.044 and the “self-splicing fitness (ln)” value (37 °C) is reported as 0.305 ± 0.065.

In the case of CUGAAGCAAUAUUACGUGCC, the “self-splicing fitness (ln)” value (37 °C) is reported as -1.64 ± 0.49.

With CUGAAGCAAUAUUACGUUUA the “self-splicing fitness (ln)” value (30 °C) was -3.97 ± 0.24.

With CUGAAGCAAUAUUACGUUUC the “self-splicing fitness (ln)” value (30 °C) was -2.72 ± 0.41.

With CUGCAGCAAUAUUACGACAC the “self-splicing fitness (ln)” value (30 °C) was -3.35 ± 0.23 and the “self-splicing fitness (ln)” value (37 °C) was -3.61 ± 0.33.

With CUGCAGCAAUAUUACGACUC the “self-splicing fitness (ln)” value (30 °C) was -3.27 ± 0.26 and the “self-splicing fitness (ln)” value (37 °C) was -1.98 ± 0.27.

With CUGCAGCAAUAUUACGACUU the “self-splicing fitness (ln)” value (30 °C) was -2.66 ± 0.14 and the “self-splicing fitness (ln)” value (37 °C) was -2.25 ± 0.17.

With CUGCAGCAAUAUUACGAUAG the “self-splicing fitness (ln)” value (30 °C) was -1.16 ± 0.11 and the “self-splicing fitness (ln)” value (37 °C) was -0.167 ± 0.12.

With CUGCAGCAAUAUUACGCCGA the “self-splicing fitness (ln)” value (37 °C) was -2.61 ± 0.36.

With CUGCAGCAAUAUUACGCCGC the “self-splicing fitness (ln)” value (37 °C) was -2.23 ± 0.45.

For CUGCAGCAAUAUUACGCGCA, the “self-splicing fitness (ln)” value (30 °C) was -3.37 ± 0.15 and the “self-splicing fitness (ln)” value (37 °C) was -2.13 ± 0.15.

With CUGCAGCAAUAUUACGCGGA the “self-splicing fitness (ln)” value (30 °C) was -2.29 ± 0.21 and the “self-splicing fitness (ln)” value (37 °C) was -2.21 ± 0.31.

For CUGCAGCAAUAUUACGCUGG, the “self-splicing fitness (ln)” value (30 °C) was -3.66 ± 0.23 and the “self-splicing fitness (ln)” value (37 °C) was -2.64 ± 0.25.

With CUGCAGCAAUAUUACGGACA the “self-splicing fitness (ln)” value (37 °C) was -1.44 ± 0.28.

In the case of CUGCAGCAAUAUUACGGACG, the “self-splicing fitness (ln)” value (30 °C) is reported as -0.355 ± 0.14 and the “self-splicing fitness (ln)” value (37 °C) is reported as 0.179 ± 0.15.

In the case of CUGCAGCAAUAUUACGGAUG, the “self-splicing fitness (ln)” value (30 °C) is reported as -1.16 ± 0.061 and the “self-splicing fitness (ln)” value (37 °C) is reported as -0.415 ± 0.081.

For CUGCAGCAAUAUUACGGCCU, the “self-splicing fitness (ln)” value (30 °C) was -3.23 ± 0.17 and the “self-splicing fitness (ln)” value (37 °C) was -1.56 ± 0.15.

In the case of CUGCAGCAAUAUUACGGUGU, the “self-splicing fitness (ln)” value (30 °C) is reported as -4.57 ± 0.36 and the “self-splicing fitness (ln)” value (37 °C) is reported as -2.37 ± 0.24.

For CUGCAGCAAUAUUACGUAGG, the “self-splicing fitness (ln)” value (30 °C) was -0.76 ± 0.057 and the “self-splicing fitness (ln)” value (37 °C) was -0.512 ± 0.07.

In the case of CUGCAGCAAUAUUACGUGAA, the “self-splicing fitness (ln)” value (30 °C) is reported as -4.94 ± 0.45 and the “self-splicing fitness (ln)” value (37 °C) is reported as -3.45 ± 0.23.

In the case of CUGCAGCAAUAUUACGUGCG, the “self-splicing fitness (ln)” value (30 °C) is reported as -1.67 ± 0.093 and the “self-splicing fitness (ln)” value (37 °C) is reported as -1.26 ± 0.11.

For CUGCAGCAAUAUUACGUUAA, the “self-splicing fitness (ln)” value (30 °C) was -3.5 ± 0.24 and the “self-splicing fitness (ln)” value (37 °C) was -3.02 ± 0.27.

In the case of CUGCAGCAAUAUUACGUUGC, the “self-splicing fitness (ln)” value (30 °C) is reported as -3.71 ± 0.26 and the “self-splicing fitness (ln)” value (37 °C) is reported as -2.18 ± 0.29.

In the case of CUGGAGCAAUAUUACGAACA, the “self-splicing fitness (ln)” value (30 °C) is reported as -2.85 ± 0.42 and the “self-splicing fitness (ln)” value (37 °C) is reported as -1.64 ± 0.48.

In the case of CUGGAGCAAUAUUACGACUC, the “self-splicing fitness (ln)” value (37 °C) is reported as -2.39 ± 0.41.

For CUGGAGCAAUAUUACGAGAC, the “self-splicing fitness (ln)” value (37 °C) was -0.723 ± 0.29.

With CUGGAGCAAUAUUACGAGAU the “self-splicing fitness (ln)” value (30 °C) was -4.02 ± 0.39 and the “self-splicing fitness (ln)” value (37 °C) was -2.49 ± 0.44.

For CUGGAGCAAUAUUACGAGUA, the “self-splicing fitness (ln)” value (30 °C) was -2.08 ± 0.26 and the “self-splicing fitness (ln)” value (37 °C) was -3.21 ± 0.35.

With CUGGAGCAAUAUUACGCAGC the “self-splicing fitness (ln)” value (30 °C) was -3.72 ± 0.49 and the “self-splicing fitness (ln)” value (37 °C) was -0.0349 ± 0.47.

In the case of CUGGAGCAAUAUUACGCCGC, the “self-splicing fitness (ln)” value (37 °C) is reported as -1.1 ± 0.38.

For CUGGAGCAAUAUUACGCGAU, the “self-splicing fitness (ln)” value (30 °C) was -2.76 ± 0.16 and the “self-splicing fitness (ln)” value (37 °C) was -1.9 ± 0.15.

With CUGGAGCAAUAUUACGCUAG the “self-splicing fitness (ln)” value (37 °C) was -2.79 ± 0.36.

With CUGGAGCAAUAUUACGGCCG the “self-splicing fitness (ln)” value (30 °C) was -0.999 ± 0.27.

In the case of CUGGAGCAAUAUUACGGGGU, the “self-splicing fitness (ln)” value (30 °C) is reported as -3.12 ± 0.31 and the “self-splicing fitness (ln)” value (37 °C) is reported as -1.53 ± 0.27.

For CUGGAGCAAUAUUACGGGUU, the “self-splicing fitness (ln)” value (30 °C) was -2.29 ± 0.18 and the “self-splicing fitness (ln)” value (37 °C) was -2.91 ± 0.28.

With CUGGAGCAAUAUUACGGUGA the “self-splicing fitness (ln)” value (30 °C) was -2.75 ± 0.24 and the “self-splicing fitness (ln)” value (37 °C) was -3.22 ± 0.35.

For CUGGAGCAAUAUUACGUAUG, the “self-splicing fitness (ln)” value (30 °C) was -1.78 ± 0.12 and the “self-splicing fitness (ln)” value (37 °C) was -0.437 ± 0.14.

In the case of CUGGAGCAAUAUUACGUCAA, the “self-splicing fitness (ln)” value (30 °C) is reported as -2.69 ± 0.44 and the “self-splicing fitness (ln)” value (37 °C) is reported as -1.19 ± 0.47.

In the case of CUGGAGCAAUAUUACGUCGG, the “self-splicing fitness (ln)” value (30 °C) is reported as -3.08 ± 0.26.

In the case of CUGGAGCAAUAUUACGUCUA, the “self-splicing fitness (ln)” value (30 °C) is reported as -1.72 ± 0.3 and the “self-splicing fitness (ln)” value (37 °C) is reported as -0.483 ± 0.23.

In the case of CUGGAGCAAUAUUACGUUAA, the “self-splicing fitness (ln)” value (30 °C) is reported as -3.18 ± 0.37 and the “self-splicing fitness (ln)” value (37 °C) is reported as -2.05 ± 0.24.

For CUGGAGCAAUAUUACGUUAC, the “self-splicing fitness (ln)” value (30 °C) was -2.8 ± 0.23 and the “self-splicing fitness (ln)” value (37 °C) was -1.42 ± 0.41.

With CUGGAGCAAUAUUACGUUCG the “self-splicing fitness (ln)” value (30 °C) was -4.29 ± 0.3 and the “self-splicing fitness (ln)” value (37 °C) was -1.77 ± 0.19.

With CUGGAGCAAUAUUACGUUUA the “self-splicing fitness (ln)” value (30 °C) was -3.17 ± 0.18 and the “self-splicing fitness (ln)” value (37 °C) was -3.28 ± 0.22.

With CUGGAGCAAUAUUACGUUUU the “self-splicing fitness (ln)” value (37 °C) was -3.48 ± 0.42.

In the case of CUGUAGCAAUAUUACGAAUU, the “self-splicing fitness (ln)” value (37 °C) is reported as -2.7 ± 0.3.

With CUGUAGCAAUAUUACGACGC the “self-splicing fitness (ln)” value (30 °C) was -2.3 ± 0.35 and the “self-splicing fitness (ln)” value (37 °C) was -2.79 ± 0.27.

With CUGUAGCAAUAUUACGCACU the “self-splicing fitness (ln)” value (30 °C) was -1.84 ± 0.37 and the “self-splicing fitness (ln)” value (37 °C) was -2.25 ± 0.31.

In the case of CUGUAGCAAUAUUACGCGGU, the “self-splicing fitness (ln)” value (30 °C) is reported as -3.17 ± 0.23 and the “self-splicing fitness (ln)” value (37 °C) is reported as -2.33 ± 0.24.

With CUGUAGCAAUAUUACGCGUC the “self-splicing fitness (ln)” value (37 °C) was -2.41 ± 0.45.

In the case of CUGUAGCAAUAUUACGCGUU, the “self-splicing fitness (ln)” value (30 °C) is reported as -4.19 ± 0.3 and the “self-splicing fitness (ln)” value (37 °C) is reported as -2.26 ± 0.18.

In the case of CUGUAGCAAUAUUACGCUCU, the “self-splicing fitness (ln)” value (30 °C) is reported as -3.47 ± 0.39.

For CUGUAGCAAUAUUACGCUGA, the “self-splicing fitness (ln)” value (30 °C) was -1.34 ± 0.16 and the “self-splicing fitness (ln)” value (37 °C) was -3.78 ± 0.29.
